According to publication PMC8184817, “Transmission of light signals from the light-oxygen-voltage core via the hydrophobic region of the β-sheet surface in aureochrome-1” (Scientific Reports, 2021):

What was measured:
Settings in all cases: protein: recombinant; chain copies: 2; label: Alexa Fluor647 (EMSA); biotin (QCM); blunt; self-complementary palindrome, 2 copies
[1] = target: T1, PZ V314I (Vaucheria frigida? (VfAUREO1), UniProt A8QW55 113-348, C162S;C182S;V314I); assay: EMSA; QCM; dark state; EC50 similar to light; EMSA: 5% polyacrylamide gel, 25 C, dark or blue light 5 W/m2; QCM: 27 MHz, QCM buffer, 25 C; buffer, salt and pH not given (earlier papers cited); EC50 values (nM, per monomer) only in figures
T1 sequence: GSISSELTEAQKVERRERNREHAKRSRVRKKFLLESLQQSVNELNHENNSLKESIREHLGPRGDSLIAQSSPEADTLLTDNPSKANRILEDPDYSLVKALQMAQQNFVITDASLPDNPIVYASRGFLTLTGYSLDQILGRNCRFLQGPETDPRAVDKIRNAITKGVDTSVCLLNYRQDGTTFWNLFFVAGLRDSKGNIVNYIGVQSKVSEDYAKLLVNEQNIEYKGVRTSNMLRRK

[2] = target: T2, PZ N218A (Vaucheria frigida? (VfAUREO1), UniProt A8QW55 113-348, C162S;C182S;N218A); assay: EMSA; QCM; dark state; EC50 similar to wtPZ; EMSA: 5% polyacrylamide gel, 25 C, dark or blue light 5 W/m2; QCM: 27 MHz, QCM buffer, 25 C; buffer, salt and pH not given (earlier papers cited); EC50 values (nM, per monomer) only in figures
T2 sequence: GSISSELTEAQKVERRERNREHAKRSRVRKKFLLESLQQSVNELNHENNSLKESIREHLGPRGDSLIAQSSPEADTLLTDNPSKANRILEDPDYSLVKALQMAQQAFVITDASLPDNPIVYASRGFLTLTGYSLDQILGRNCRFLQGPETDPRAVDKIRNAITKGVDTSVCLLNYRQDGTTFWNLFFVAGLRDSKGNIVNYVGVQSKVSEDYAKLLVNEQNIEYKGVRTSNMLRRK

[3] = target: T3, PZ Q217A (Vaucheria frigida? (VfAUREO1), UniProt A8QW55 113-348, C162S;C182S;Q217A); assay: as above
T3 sequence: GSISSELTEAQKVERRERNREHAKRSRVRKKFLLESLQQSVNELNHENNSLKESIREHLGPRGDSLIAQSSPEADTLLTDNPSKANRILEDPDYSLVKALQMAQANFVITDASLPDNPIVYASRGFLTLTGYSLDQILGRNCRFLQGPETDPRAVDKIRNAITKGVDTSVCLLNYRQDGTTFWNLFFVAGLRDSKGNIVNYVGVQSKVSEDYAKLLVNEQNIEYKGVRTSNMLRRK

[4] = target: T4, PZ Q216A (Vaucheria frigida? (VfAUREO1), UniProt A8QW55 113-348, C162S;C182S;Q216A); assay: as above
T4 sequence: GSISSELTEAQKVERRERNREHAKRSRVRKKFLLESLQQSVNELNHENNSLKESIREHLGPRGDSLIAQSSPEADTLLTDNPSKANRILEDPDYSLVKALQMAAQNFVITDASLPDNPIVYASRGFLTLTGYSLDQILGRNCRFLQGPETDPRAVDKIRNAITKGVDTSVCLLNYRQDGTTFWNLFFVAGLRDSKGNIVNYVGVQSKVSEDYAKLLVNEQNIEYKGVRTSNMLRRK

[5] = target: T5, PZ L201A (Vaucheria frigida? (VfAUREO1), UniProt A8QW55 113-348, C162S;C182S;L201A); assay: EMSA; QCM; dark state; EC50 lower than wtPZ; EMSA: 5% polyacrylamide gel, 25 C, dark or blue light 5 W/m2; QCM: 27 MHz, QCM buffer, 25 C; buffer, salt and pH not given (earlier papers cited); EC50 values (nM, per monomer) only in figures
T5 sequence: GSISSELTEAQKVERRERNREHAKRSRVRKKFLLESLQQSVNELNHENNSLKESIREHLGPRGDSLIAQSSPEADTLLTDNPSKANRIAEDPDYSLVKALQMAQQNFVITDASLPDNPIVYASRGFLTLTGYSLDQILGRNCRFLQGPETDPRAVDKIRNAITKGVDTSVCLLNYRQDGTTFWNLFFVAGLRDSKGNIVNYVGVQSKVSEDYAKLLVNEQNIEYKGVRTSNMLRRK

[6] = target: T6, PZ L201A/L208A/L212A (triple) (Vaucheria frigida? (VfAUREO1), UniProt A8QW55 113-348, C162S;C182S;L201A;L208A;L212A); assay: as above
T6 sequence: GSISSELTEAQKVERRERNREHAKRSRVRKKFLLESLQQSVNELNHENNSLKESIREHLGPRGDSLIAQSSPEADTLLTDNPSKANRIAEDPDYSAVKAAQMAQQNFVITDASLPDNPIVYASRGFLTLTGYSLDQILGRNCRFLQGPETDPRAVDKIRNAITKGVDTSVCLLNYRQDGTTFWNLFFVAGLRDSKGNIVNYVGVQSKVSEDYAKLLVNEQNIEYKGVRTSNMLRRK

[7] = target: T7, PZ L208A (Vaucheria frigida? (VfAUREO1), UniProt A8QW55 113-348, C162S;C182S;L208A); assay: as above
T7 sequence: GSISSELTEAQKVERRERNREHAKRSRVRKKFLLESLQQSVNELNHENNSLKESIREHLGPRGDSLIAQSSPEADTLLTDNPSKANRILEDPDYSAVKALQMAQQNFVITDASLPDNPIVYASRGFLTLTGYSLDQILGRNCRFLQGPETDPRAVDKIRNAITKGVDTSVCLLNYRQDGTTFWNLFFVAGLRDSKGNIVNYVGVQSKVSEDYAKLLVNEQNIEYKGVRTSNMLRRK

Measured: binding result

B1: dsApo (dsDNA)
DNA 1: GCTGTCTGACGTCAGACAGC
DNA 2: GCTGTCTGACGTCAGACAGC
binds: [1] | [2] | [3] | [4] | [5] | [6] | [7]
